Test results as given in patent US6686450B1, “Immunosuppressive agents that inhibit calcineurin function and uses of these agents” (Massachusetts Institute of Technology, priority 1998, dated 2004).

Tests used:
Type in all cases: cell-based
[1] = target: T1, wild type full-length calcineurin (Homo sapiens, UniProt P16298); experiment: co-immunoprecipitation of Cabin 1-14 and calcineurin from Jurkat T cells; conditions: PMA, ionomycin or both for 3 hrs
T1 construct: expressed in transfected cells; host or cells: Jurkat T cells
T1 sequence (P63098 2-170 partner limits assumed, other chains not shown): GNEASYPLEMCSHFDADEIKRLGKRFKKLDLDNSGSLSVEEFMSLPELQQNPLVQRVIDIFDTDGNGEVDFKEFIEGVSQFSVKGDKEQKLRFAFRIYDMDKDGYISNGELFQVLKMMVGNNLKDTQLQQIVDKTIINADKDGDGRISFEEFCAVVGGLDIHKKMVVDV
Source text: In the mammalian two-hybrid system, the interaction between full-length calcineurin and Cabin 1-14 required ionomycin, which is consistent with the activation of full-length calcineurin by calcium and calmodulin. Unexpectedly, this interaction also required PMA (see FIG. 3C). Since PMA is known to activate PKC, the effect of a PKC-specific inhibitor, bisindolylmaleimide (Toullec et a., J. Biol. Chem. 266:15771-15781 (1991)), was examined on the PMA/ionomycin-stimulated interaction between Cabin 1-14 and calcineurin. […] In addition to the mammalian two-hybrid system, the interaction of Cabin 1-14 and the wild type full-length calcineurin was also confirmed by co-immunoprecipitation (See FIG. 3E). […] Jurkat T cells transfected with pSG-HACNAβ2 and pSG-Cabin 1-14 were stimulated with PMA, ionomycin or both for 3 hrs. The cells were lysed in a lysis buffer (20 mM TrisHCl, pH 7.4, 0.1M NaCl, 1% Triton X-100, 0.5% NP-40 and 0.5 mM PMSF). Cell lysates thus prepared were incubated with anti-Cabin 1 polyclonal antibodies and protein A/G agarose (Santa Cruz) for 2 hr., washed with lysis buffer and boiled in SDS sample buffer. The samples were subjected to 10% SDS-PAGE, transferred to nitrocellulose which was probed with anti-HA monoclonal antibodies and developed with ECL reagents (Amersham, Arlington Heights, Ill.). […]

[2] = tested on: ARRE (Oct1/AP-1) binding sites derived from the IL-2 promoter; experiment: ARRE (Oct1/AP-1) luciferase reporter gene assay in Jurkat T cells; conditions: coexpression
[3] = tested on: calcineurin phosphatase activity; experiment: calcineurin-mediated dephosphorylation of ΔNF-AT1 in Jurkat T cells (Western blot)
Source text: To determine if the inhibition of IL-2 promoter by Cabin1-14 is mediated through the inhibition of calcineurin phosphatase activity in vivo, the effect of Cabin 1-14 on the calcineurin-mediated dephosphorylation of the N-terminal fragment of NF-ATI (ΔNF-AT1), upon treatment with ionomycin and PMA, was examined. Jurkat T cells were transfected with expression vectors for Cabin 1-14 (pSGCabin 1-14) and for HA-epitope tagged, truncated NF-AT1 (1-460) fused to green fluorescent protein (pSG-ΔNF-AT1 (1-460) by electroporation as described above. After 48 hrs, cells were treated with PMA and ionomycin, either alone or in combination, for another 1 hr. Whole-cell lysates were prepared and subjected to 8% SDS-polyacrylamide gel electrophoresis, transferred to nitrocellulose membrane (Schleicher & Schuell, New Hampshire), probed with anti-HA epitope monoclonal antibody, and developed with ECL reagents (Amersham, Arlington Heights, Ill.).

[4] = tested on: NF-κB binding sites derived from the IL-2 promoter; experiment: NF-κB luciferase reporter gene assay in Jurkat T cells; conditions: coexpression
[5] = tested on: AP-1 binding sites derived from the IL-2 promoter; experiment: AP-1 luciferase reporter gene assay in Jurkat T cells; conditions: coexpression
[6] = target: T2, interaction between Cabin 1-14 and full length calcineurin β2 (H160N) (Homo sapiens, UniProt P16298, H160N); experiment: mammalian two-hybrid assay in Jurkat T cells (luciferase reporter); conditions: Jurkat T cells stimulated with PMA and ionomycin
T2 construct: expressed in transfected cells; host or cells: Jurkat T cells
Source text: (§1) A mammalian two-hybrid system was established in Jurkat T cells by fusing calcineurin with the Gal4 DNA binding domain and Cabin 1-14 with the VP16 activation domain (Hsu et al., Proc. Natl. Acid Sci. USA 91:3181-3185 (1994)). The fusion plasmids for mammalian two-hybrid assays were constructed as follows: The cDNAs of calcineurin Aβ2 wild type and H160N mutant were fused to the GAL4 DB in the pM vector (obtained from Clontech, Palo Alto, Calif.) (pMCNβ2 and PMCNβ2 (H160N), and the cDNA of Cabin 1-14 was fused to the VP16 AD in the pVP16 vector (pVPCabin 1-14). Jurkat T cells were transfected with 5 μg of pMCβ2 or pMCβ2 (H160N), 5 μg of pVPCabin 1-14, 1 μg of pCMV-βGal, and 2 μg of pg5Luc, a luciferase reporter plasmid containing GAL4 promoter, by electroporation (960 μF, 250V). After 48 hr, cells were stimulated with 40 nM PMA and 2.5 μM ionomycin, either alone or in combination, for 6 hr before luciferase activity was measured for each sample. The luciferase reporter gene assay reagents were obtained from Promega, Madison, Wis., and the assay was performed per manufacturer's instructions. […] Where appropriate, the transfection efficiency was measured by co-transfecting 2 μg of CMV-driven β-galactosidase expression vector and measuring enzymatic β-galactosidase activity (Ausubel et al., Current Protocols in Molecular Biology (John Wiley & Sons, Inc., New York, 1994)).

[7] = target: T3, interaction between Cabin 1-14 and wild type calcineurin β2 (Homo sapiens, UniProt P16298); experiment: as above; conditions: Jurkat T cells stimulated with PMA and ionomycin
T3 construct: expressed in transfected cells; host or cells: Jurkat T cells
Source text: as §1

IL-2 promoter = IL-2 promoter luciferase reporter gene assay in Jurkat T cells; conditions: PMA and ionomycin
[8] = tested on: NF-AT binding sites derived from the IL-2 promoter; experiment: NF-AT luciferase reporter gene assay in Jurkat T cells; conditions: coexpression

B1: Cabin 1-14: C-terminal fragment of Cabin 1 polypeptide, SEQ ID NO:5 (protein, listed as Homo sapiens)
chain: KFPPEITVTPPTPTLLSPKGSISEETKQKLKSAILSAQSAANVRKESLCQPALEVLETSSQESSLESETDEDDDYMDI
coprecipitation with wild type calcineurin [1]: coprecipitated only upon stimulation of Jurkat T cells with both PMA and ionomycin
coprecipitation with wild type calcineurin ([1]; listed as Cabin1-14): dependent on both PKC and calcium stimulation
effect on ARRE (Oct1/AP-1) reporter gene [2]: inhibited
effect on ARRE (Oct1/AP-1) reporter gene ([2]; listed as Cabin1-14): inhibits
inhibition of ΔNF-AT1 dephosphorylation in the presence of PMA versus in its absence ([3]; ionomycin with PMA versus without): larger extent
effect on dephosphorylation of ΔNF-AT1 ([3]; overexpression, ionomycin in the presence or absence of PMA): inhibited
effect on NF-κB reporter gene [4]: inhibited
effect on NF-κB reporter gene ([4]; listed as Cabin1-14): inhibits
effect on AP-1 reporter gene [5]: inhibited
effect on AP-1 reporter gene ([5]; listed as Cabin1-14): inhibits
interaction with full length calcineurin β2 (H160N) mutant [6]: strong interaction
interaction with wild type calcineurin relative to the mutant enzyme [7]: several fold weaker
effect on IL-2 reporter gene activation (IL-2 promoter): potently inhibited
effect on IL-2 reporter gene activation (IL-2 promoter; listed as Cabin1-14): inhibit
effect on NF-AT reporter gene [8]: inhibited
effect on NF-AT reporter gene ([8]; listed as Cabin1-14): inhibits
